Experimental findings from PMC2956612 (Structure (London, England : 1993), 2010) are described below.

Ends that are not written are not given here. * marks the point of attachment. Biotin = O=C1N[C@H]2[C@H](CS[C@H]2CCCCC(=O)*)N1

The experiment deals with T1, full length VDR/RXRα heterodimer (His-hVDR with Flag-hRXRα) (human, UniProt P11473 1-427; P19793 1-462).
T1 sequence (looked up) 1: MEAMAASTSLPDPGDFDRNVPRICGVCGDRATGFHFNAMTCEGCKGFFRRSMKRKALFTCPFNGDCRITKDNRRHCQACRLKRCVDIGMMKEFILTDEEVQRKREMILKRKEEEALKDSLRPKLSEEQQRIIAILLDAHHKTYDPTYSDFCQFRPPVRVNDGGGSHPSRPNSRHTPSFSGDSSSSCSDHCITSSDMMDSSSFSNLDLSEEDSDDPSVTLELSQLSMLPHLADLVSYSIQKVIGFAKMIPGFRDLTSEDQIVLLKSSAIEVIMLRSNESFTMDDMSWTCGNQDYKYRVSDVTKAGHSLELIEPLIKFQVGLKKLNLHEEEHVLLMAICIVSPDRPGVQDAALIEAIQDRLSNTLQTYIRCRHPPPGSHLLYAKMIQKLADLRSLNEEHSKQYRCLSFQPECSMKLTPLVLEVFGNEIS
T1 sequence (looked up) 2: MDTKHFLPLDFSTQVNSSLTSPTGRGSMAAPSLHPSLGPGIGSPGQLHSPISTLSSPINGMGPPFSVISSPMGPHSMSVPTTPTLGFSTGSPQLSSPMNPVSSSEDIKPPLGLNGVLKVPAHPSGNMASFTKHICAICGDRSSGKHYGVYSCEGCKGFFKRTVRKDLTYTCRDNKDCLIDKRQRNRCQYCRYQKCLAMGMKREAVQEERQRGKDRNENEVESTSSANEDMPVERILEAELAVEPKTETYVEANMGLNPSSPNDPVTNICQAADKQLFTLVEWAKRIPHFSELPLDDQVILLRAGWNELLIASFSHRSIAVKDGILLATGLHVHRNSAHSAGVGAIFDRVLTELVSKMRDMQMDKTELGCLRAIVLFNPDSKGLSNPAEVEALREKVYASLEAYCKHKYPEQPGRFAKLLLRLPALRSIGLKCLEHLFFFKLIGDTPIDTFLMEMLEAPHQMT
The experiment is described as follows: AlphaScreen or HTRF.

B1: biotinylated DRIP 205-2 peptide (peptide)
peptide: Biotin-KGGTPPPVSSMAGNTKNHPMLMNLLKDNPAQDF
On to B1, for which the binding result is “binds”.

B2: biotinylated SRC1-NR2 peptide (peptide)
peptide: Biotin-KGGGGSCPSSHSSLTERHKILHRLLQEGSPSDI
B2: the binding result is given as “binds”.
